# Experimental data from patent publication US20180147231A1, “METHOD FOR TREATMENT AND PROGNOSIS OF COLORECTAL CANCER” (Oxford University Innovation Limited, priority 2015, published 2018).
# B1: IL-22: recombinant human IL-22 (R&D Systems), IL-10 superfamily cytokine; human sequence SEQ ID NO: 5 (protein, listed as Homo sapiens)
# chain: MAALQKSVSSFLMGTLATSCLLLLALLVQGGAAAPISSHCRLDKSNFQQPYITNRTFMLAKEASLADNNTDVRLIGEKLFHGVSMSERCYLMKQVLNFTLEEVLFPQSDRFQPYMQEVVPFLARLSNRLSTCHIEGDDLHIQRNVQKLKDTVKKLGESGEIKAIGELDLLFMSLRNACI
# What was measured:
# [1] = system: DLD-1 KRAS WT cells (mutant KRAS allele knocked out); assay: Phosflow analysis of intracellular signaling, DLD-1 KRAS WT; type: cell-based; conditions: 30 min 10 ng/mL recombinant human IL-22
# Method: (§1) Therefore this isogenic pair differs only in KRAS mutation status and allows a clean system for comparison of KRAS-dependent IL-22 effects without inter-cell line mutational heterogeneity. (A) Representative FACS plots of IL-22RA1 expression and quantification of mean fluorescence intensity (WI) showing similar IL-22RA1 expression in the isogenic pair (4 experimental replicates). […] MTT was added 2 h prior to end of 48 h incubation. Formazan particles were dissolved in DMSO and absorbance was measured at 540 nm. Raw absorbances are blank corrected, normalized to a no treatment, and represented as a % viability compared to the no treatment condition. n=5 independent experiments with 3 experimental replicates. p values computed by non-parametric Mann-Whitney test comparing 5 FU alone to IL-22 pretreatment with 5 FU for each DLD-1 line.
# Adherent Colo205, T84, SW480, and DLD-1 cells were dissociated using StemPro® Accutase® (Life Technologies), filtered through […] filters, and counted by Trypan Blue exclusion. 5×10^5 cells of each line were stained with 5 μL Human IL-22 R alpha 1 Phycoerythrin MAb (Clone 305405) (R&D Systems) or […] isotype rat anti-mouse IgG1 PE (BD Biosciences) and incubated for 30 minutes at room temperature. Cells were washed with PBS, 0.1% BSA, 2 mM EDTA and acquired on the BD LSRII. Analysis was performed using FlowJo (Tree Star) software. […]
# [2] = system: SOCS3 expression in CRC lines (Colo205, LS103, SW948, T84, SW480, HCT116); assay: qPCR of SOCS3 after IL-22 stimulation of CRC cell lines; type: cell-based, human; conditions: 24 h stimulation with IL-22, n=3
# Source text: (A) qPCR analysis of IL22RA1 expression level on 3 KRAS-WT (Colo205, LS103, SW948) and 3 KRAS-mutant (T84, SW480, HCT116) CRC cell lines. n=3 *p<0.05, **p<0.01, one-way ANOVA with Tukey's post test for multiple comparisons. (B) Representative FACS plots of IL-22RA1 expression on the Colo205 (KRAS-WT, IL-22RA1^high), T84 (KRAS-Mut, IL-22RA1^high), and SW480 (KRAS-mutant, IL-22RA1^low) lines. (C) Western blot analysis of activation of STAT3, ERK, and Akt signaling pathways in 6 CRC lines following 24 h stimulation with 1 ng/mL IL-22, 10 ng/mL IL-22, and 1 ng/mL IL-6. 1 blot representative of 3 independent experiments.
# Colo205, LS1034, SW948, SW480, T84, and HCT116 (ATCC) colorectal cancer cell (CRC) lines were a generous gift from Dr. Simon Leedham and were confirmed to be mycoplasma free. X-MAN DLD-1 isogenic cells were purchased from Horizon Discovery. […]
# RNA was extracted from cultured monolayers of CRC lines, suspensions of LIM1863 spheroids, and CRC line derived spheres using the RNeasy Mini Kit (Qiagen) according to the manufacturers protocol. cDNA was synthesized using the High-Capacity cDNA Reverse Transcription Kit (Applied Biosystems). Gene expression was analyzed using Taqman® Gene Expression Assays (Applied Biosystems) and run with Precision 2× Master Mix (Primerdesign) in 384 well plates using the ViiA7 Real-Time PCR System (Applied Biosystems). […]
# DLD-1 KRAS MUT cells = assay: Chemotherapy killing assay (MTT), DLD-1 KRAS MUT; type: cell-based, human; conditions: 48 h pre-treatment with 10 ng/mL IL-22, then 50 μM 5-FU for 48 h
# Method: as §1
# Colo205, T84, SW480, and DLD-1 cells were seeded at a density of 1×10^4 cells/well in 48 well plates. Cells were pre-treated for 48 h with 10 ng/mL IL-22, then subjected to 50 μM oxaliplatin (Sigma) or 5-fluorouracil (Sigma) or vehicle control (DMSO) for 48 h. 50 μg Methylthiazolyldiphenyl-tetrazolium bromide (MTT) (Sigma) was added to each well 2 h prior to the end of incubation. […] Absorbance was measured at 540 nm on Spectrostar Nano plate reader (BMG Labtech).
molecule,measurement,setting,value
B1,Phosphorylated ERK1/2,[1],not IL-22 inducible
same,Phosphorylated STAT3,[1],identical extent of phosphorylated STAT3
same,SOCS3 expression (confirmation of active downstream IL-22 signaling),[2],upregulation of SOCS3
same,Protection against 5-fluorouracil mediated cell death,DLD-1 KRAS MUT cells,protects against 5 fluorouracil mediated cell death
